Columns and labels:
HeLa Kyoto [1] = experiment: solubility change mitosis vs G1/S (difference of NP-40 vs SDS log2 ratios) (log2 ratio difference); higher = more soluble in mitosis
HeLa Kyoto [2] = experiment: solubility in G1/S (NP-40 vs SDS abundance) (log2 ratio); higher = more soluble; conditions: cell cycle stage: G1/S
HeLa Kyoto [3] = experiment: melting temperature (median over replicates), in situ; higher = more thermally stable
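Throughout, for melting temperature (median over replicates), in situ: HeLa Kyoto cells synchronized by double thymidine or nocodazole block, proteins quantified by TMT10plex mass spectrometry, three independent biological replicates.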
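Throughout, for solubility change mitosis vs G1/S (difference of NP-40 vs SDS log2 ratios): synchronized HeLa Kyoto cells (double thymidine block for G1/S, nocodazole release for mitosis), protein amounts in NP-40 versus SDS lysates quantified by mass spectrometry, three biological replicates.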
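Throughout, for solubility in G1/S (NP-40 vs SDS abundance): HeLa Kyoto cells arrested at G1/S by double thymidine block, proteins quantified by TMT10plex mass spectrometry in mild NP-40 versus SDS extracts, three biological replicates.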

Chain of DNAJC19 (chain, as listed by the source): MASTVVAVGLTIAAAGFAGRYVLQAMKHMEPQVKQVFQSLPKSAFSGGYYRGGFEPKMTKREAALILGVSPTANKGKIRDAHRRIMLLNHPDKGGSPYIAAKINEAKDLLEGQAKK
Chain of UNC13B (chain, as listed by the source): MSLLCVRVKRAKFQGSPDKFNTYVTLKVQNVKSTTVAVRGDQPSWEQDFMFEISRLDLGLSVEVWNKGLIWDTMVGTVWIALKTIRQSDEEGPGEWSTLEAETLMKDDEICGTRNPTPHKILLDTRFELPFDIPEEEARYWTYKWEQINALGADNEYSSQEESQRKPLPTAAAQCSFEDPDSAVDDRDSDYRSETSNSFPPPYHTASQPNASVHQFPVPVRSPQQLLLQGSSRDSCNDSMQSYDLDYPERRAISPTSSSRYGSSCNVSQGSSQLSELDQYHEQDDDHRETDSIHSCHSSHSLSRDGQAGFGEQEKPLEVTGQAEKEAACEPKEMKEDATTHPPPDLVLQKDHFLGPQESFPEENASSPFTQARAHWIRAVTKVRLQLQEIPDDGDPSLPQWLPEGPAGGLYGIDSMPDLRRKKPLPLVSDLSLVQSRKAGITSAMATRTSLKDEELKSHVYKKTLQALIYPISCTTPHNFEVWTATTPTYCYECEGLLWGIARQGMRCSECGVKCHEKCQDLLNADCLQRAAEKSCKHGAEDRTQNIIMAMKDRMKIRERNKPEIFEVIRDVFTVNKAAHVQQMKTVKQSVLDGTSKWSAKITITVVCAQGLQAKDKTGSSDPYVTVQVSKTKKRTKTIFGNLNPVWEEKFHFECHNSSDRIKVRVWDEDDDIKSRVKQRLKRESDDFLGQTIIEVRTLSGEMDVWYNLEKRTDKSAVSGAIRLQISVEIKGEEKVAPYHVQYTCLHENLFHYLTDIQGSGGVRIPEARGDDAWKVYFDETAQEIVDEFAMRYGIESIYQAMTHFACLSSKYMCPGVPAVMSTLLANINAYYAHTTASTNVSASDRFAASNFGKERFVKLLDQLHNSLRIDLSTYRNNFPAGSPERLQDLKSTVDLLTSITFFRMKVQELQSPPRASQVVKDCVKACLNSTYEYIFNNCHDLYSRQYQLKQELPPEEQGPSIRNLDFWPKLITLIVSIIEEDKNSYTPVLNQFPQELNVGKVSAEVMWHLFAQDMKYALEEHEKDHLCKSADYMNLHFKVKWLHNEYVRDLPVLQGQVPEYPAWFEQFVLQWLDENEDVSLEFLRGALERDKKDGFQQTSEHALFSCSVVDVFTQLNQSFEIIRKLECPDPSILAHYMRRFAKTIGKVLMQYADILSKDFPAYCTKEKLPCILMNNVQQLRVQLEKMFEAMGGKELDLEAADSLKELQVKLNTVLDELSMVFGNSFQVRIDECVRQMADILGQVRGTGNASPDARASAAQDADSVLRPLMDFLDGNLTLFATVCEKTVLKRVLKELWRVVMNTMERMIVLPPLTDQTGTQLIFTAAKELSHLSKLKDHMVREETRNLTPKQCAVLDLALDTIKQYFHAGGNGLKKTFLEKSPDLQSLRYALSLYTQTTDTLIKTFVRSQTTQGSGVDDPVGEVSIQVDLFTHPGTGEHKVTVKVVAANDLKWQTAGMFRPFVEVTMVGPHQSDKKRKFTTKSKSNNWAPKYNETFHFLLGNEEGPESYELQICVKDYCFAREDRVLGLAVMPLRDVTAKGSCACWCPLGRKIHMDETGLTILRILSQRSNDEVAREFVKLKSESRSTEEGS
Chain of DNAJC15 (chain, as listed by the source): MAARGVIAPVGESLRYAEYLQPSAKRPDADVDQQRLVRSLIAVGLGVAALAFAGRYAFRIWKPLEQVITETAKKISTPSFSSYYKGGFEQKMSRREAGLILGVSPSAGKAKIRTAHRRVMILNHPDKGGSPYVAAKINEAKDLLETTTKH

| Substance | solubility change mitosis (log2) (HeLa Kyoto [1]) | solubility in G1/S (log2) (HeLa Kyoto [2]) | melting temperature (HeLa Kyoto [3]; cell cycle stage: G1/S) | melting temperature (HeLa Kyoto [3]; cell cycle stage: mitosis) |
| --- | --- | --- | --- | --- |
| MPIVDKLKEALKPGRKDSADDGELGKLLASSAKKVLLQKIEFEPASKSFSYQLEALKSKYVLLNPKTEGASRHKSGDDPPARRQGSEHTYESCGDGVPAPQKVLFPTERLSLRWERVFRVGAGLHNLGNTCFLNATIQCLTYTPPLANYLLSKEHARSCHQGSFCMLCVMQNHIVQAFANSGNAIKPVSFIRDLKKIARHFRFGNQEDAHEFLRYTIDAMQKACLNGCAKLDRQTQATTLVHQIFGGYLRSRVKCSVCKSVSDTYDPYLDVALEIRQAANIVRALELFVKADVLSGENAYMCAKCKKKVPASKRFTIHRTSNVLTLSLKRFANFSGGKITKDVGYPEFLNIRPYMSQNNGDPVMYGLYAVLVHSGYSCHAGHYYCYVKASNGQWYQMNDSLVHSSNVKVVLNQQAYVLFYLRIPGSKKSPEGLISRTGSSSLPGRPSVIPDHSKKNIGNGIISSPLTGKRQDSGTMKKPHTTEEIGVPISRNGSTLGLKSQNGCIPPKLPSGSPSPKLSQTPTHMPTILDDPGKKVKKPAPPQHFSPRTAQGLPGTSNSNSSRSGSQRQGSWDSRDVVLSTSPKLLATATANGHGLKGNDESAGLDRRGSSSSSPEHSASSDSTKAPQTPRSGAAHLCDSQETNCSTAGHSKTPPSGADSKTVKLKSPVLSNTTTEPASTMSPPPAKKLALSAKKASTLWRATGNDLRPPPPSPSSDLTHPMKTSHPVVASTWPVHRARAVSPAPQSSSRLQPPFSPHPTLLSSTPKPPGTSEPRSCSSISTALPQVNEDLVSLPHQLPEASEPPQSPSEKRKKTFVGEPQRLGSETRLPQHIREATAAPHGKRKRKKKKRPEDTAASALQEGQTQRQPGSPMYRREGQAQLPAVRRQEDGTQPQVNGQQVGCVTDGHHASSRKRRRKGAEGLGEEGGLHQDPLRHSCSPMGDGDPEAMEESPRKKKKKKRKQETQRAVEEDGHLKCPRSAKPQDAVVPESSSCAPSANGWCPGDRMGLSQAPPVSWNGERESDVVQELLKYSSDKAYGRKVLTWDGKMSAVSQDAIEDSRQARTETVVDDWDEEFDRGKEKKIKKFKREKRRNFNAFQKLQTRRNFWSVTHPAKAASLSYRR [USP36] | 0.946 | -1.41 | 52.3 °C | 52.2 °C |
| MEELTIWEQHTATLSKDPRRGFGIAISGGRDRPGGSMVVSDVVPGGPAEGRLQTGDHIVMVNGVSMENATSAFAIQILKTCTKMANITVKRPRRIHLPATKASPSSPGRQDSDEDDGPQRVEEVDQGRGYDGDSSSGSGRSWDERSRRPRPGRRGRAGSHGRRSPGGGSEANGLALVSGFKRLPRQDVQMKPVKSVLVKRRDSEEFGVKLGSQIFIKHITDSGLAARHRGLQEGDLILQINGVSSQNLSLNDTRRLIEKSEGKLSLLVLRDRGQFLVNIPPAVSDSDSSPLEDISDLASELSQAPPSHIPPPPRHAQRSPEASQTDSPVESPRLRRESSVDSRTISEPDEQRSELPRESSYDIYRVPSSQSMEDRGYSPDTRVVRFLKGKSIGLRLAGGNDVGIFVSGVQAGSPADGQGIQEGDQILQVNDVPFQNLTREEAVQFLLGLPPGEEMELVTQRKQDIFWKMVQSRVGDSFYIRTHFELEPSPPSGLGFTRGDVFHVLDTLHPGPGQSHARGGHWLAVRMGRDLREQERGIIPNQSRAEQLASLEAAQRAVGVGPGSSAGSNARAEFWRLRGLRRGAKKTTQRSREDLSALTRQGRYPPYERVVLREASFKRPVVILGPVADIAMQKLTAEMPDQFEIAETVSRTDSPSKIIKLDTVRVIAEKDKHALLDVTPSAIERLNYVQYYPIVVFFIPESRPALKALRQWLAPASRRSTRRLYAQAQKLRKHSSHLFTATIPLNGTSDTWYQELKAIIREQQTRPIWTAEDQLDGSLEDNLDLPHHGLADSSADLSCDSRVNSDYETDGEGGAYTDGEGYTDGEGGPYTDVDDEPPAPALARSSEPVQADESQSPRDRGRISAHQGAQVDSRHPQGQWRQDSMRTYEREALKKKFMRVHDAESSDEDGYDWGPATDL [TJP3] | 0.0692 | -0.105 | 50.3 °C | 50.8 °C |
| MAAPSGTVSDSESSNSSSDAEELERCREAAMPAWGLEQRPHVAGKPRAGAANSQLSTSQPSLRHKVNEHEQDGNELQTTPEFRAHVAKKLGALLDSFITISEAAKEPAKAKVQKVALEDDGFRLFFTSVPGGREKEESPQPRRKRQPSSSSEDSDEEWRRCREAAVSASDILQESAIHSPGTVEKEAKKKRKLKKKAKKVASVDSAVAATTPTSMATVQKQKSGELNGDQVSLGTKKKKKAKKASETSPFPPAKSATAIPAN [C12ORF43] | 0.379 | -0.08 | 56.1 °C | 56.9 °C |
| MASPAASSVRPPRPKKEPQTLVIPKNAAEEQKLKLERLMKNPDKAVPIPEKMSEWAPRPPPEFVRDVMGSSAGAGSGEFHVYRHLRRREYQRQDYMDAMAEKQKLDAEFQKRLEKNKIAAEEQTAKRRKKRQKLKEKKLLAKKMKLEQKKQEGPGQPKEQGSSSSAEASGTEEEEEVPSFTMGR [PRKRIP1] | 0.169 | 0.499 | 53.3 °C | 53.6 °C |
| MASSFLPAGAITGDSGGELSSGDDSGEVEFPHSPEIEETSCLAELFEKAAAHLQGLIQVASREQLLYLYARYKQVKVGNCNTPKPSFFDFEGKQKWEAWKALGDSSPSQAMQEYIAVVKKLDPGWNPQIPEKKGKEANTGFGGPVISSLYHEETIREEDKNIFDYCRENNIDHITKAIKSKNVDVNVKDEEGRALLHWACDRGHKELVTVLLQHRADINCQDNEGQTALHYASACEFLDIVELLLQSGADPTLRDQDGCLPEEVTGCKTVSLVLQRHTTGKA [ACBD6] | 0.0566 | 0.393 | 48 °C | 49.2 °C |
| MAAPEAPPLDRVFRTTWLSTECDSHPLPPSYRKFLFETQAADLAGGTTVAAGNLLNESEKDCGQDRRAPGVQPCRLVTMTSVVKTVYSLQPPSALSGGQPADTQTRATSKSLLPVRSKEVDVSKQLHSGGPENDVTKITKLRRENGQMKATDTATRRNVRKGYKPLSKQKSEEELKDKNQLLEAVNKQLHQKLTETQGELKDLTQKVELLEKFRDNCLAILESKGLDPALGSETLASRQESTTDHMDSMLLLETLQEELKLFNETAKKQMEELQALKVKLEMKEERVRFLEQQTLCNNQVNDLTTALKEMEQLLEM [KNSTRN] | 0.517 | 0.269 | 48.7 °C | 50.5 °C |
| MFPRPLTPLAAPNGAEPLGRALRRAPLGRARAGLGGPPLLLPSMLMFAVIVASSGLLLMIERGILAEMKPLPLHPPGREGTAWRGKAPKPGGLSLRAGDADLQVRQDVRNRTLRAVCGQPGMPRDPWDLPVGQRRTLLRHILVSDRYRFLYCYVPKVACSNWKRVMKVLAGVLDSVDVRLKMDHRSDLVFLADLRPEEIRYRLQHYFKFLFVREPLERLLSAYRNKFGEIREYQQRYGAEIVRRYRAGAGPSPAGDDVTFPEFLRYLVDEDPERMNEHWMPVYHLCQPCAVHYDFVGSYERLEADANQVLEWVRAPPHVRFPARQAWYRPASPESLHYHLCSAPRALLQDVLPKYILDFSLFAYPLPNVTKEACQQ [CHST14] | -0.0549 | 0.333 | 51.9 °C | – |
| DNAJC19 | 0.348 | -0.0616 | 53.4 °C | 53.5 °C |
| MDDSETGFNLKVVLVSFKQCLDEKEEVLLDPYIASWKGLVRFLNSLGTIFSFISKDVVSKLRIMERLRGGPQSEHYRSLQAMVAHELSNRLVDLERRSHHPESGCRTVLRLHRALHWLQLFLEGLRTSPEDARTSALCADSYNASLAAYHPWVVRRAVTVAFCTLPTREVFLEAMNVGPPEQAVQMLGEALPFIQRVYNVSQKLYAEHSLLDLP [CPTP] | -0.256 | -0.0351 | 49.1 °C | 48.4 °C |
| MEEEGVKEAGEKPRGAQMVDKAGWIKKSSGGLLGFWKDRYLLLCQAQLLVYENEDDQKCVETVELGSYEKCQDLRALLKRKHRFILLRSPGNKVSDIKFQAPTGEEKESWIKALNEGINRGKNKAFDEVKVDKSCALEHVTRDRVRGGQRRRPPTRVHLKEVASAASDGLLRLDLDVPDSGPPVFAPSNHVSEAQPRETPRPLMPPTKPFLAPETTSPGDRVETPVGERAPTPVSASSEVSPESQEDSETPAEEDSGSEQPPNSVLPDKLKVSWENPSPQEAPAAESAEPSQAPCSETSEAAPREGGKPPTPPPKILSEKLKASMGEMQASGPPAPGTVQVSVNGMDDSPEPAKPSQAEGTPGTPPKDATTSTALPPWDLPPQFHPRCSSLGDLLGEGPRHPLQPRERLYRAQLEVKVASEQTEKLLNKVLGSEPAPVSAETLLSQAVEQLRQATQVLQEMRDLGELSQEAPGLREKRKELVTLYRRSAP [PLEKHO2] | 0.0528 | 0.188 | 53.2 °C | 51.9 °C |
| MATSTGRWLLLRLALFGFLWEASGGLDSGASRDDDLLLPYPRARARLPRDCTRVRAGNREHESWPPPPATPGAGGLAVRTFVSHFRDRAVAGHLTRAVEPLRTFSVLEPGGPGGCAARRRATVEETARAADCRVAQNGGFFRMNSGECLGNVVSDERRVSSSGGLQNAQFGIRRDGTLVTGYLSEEEVLDTENPFVQLLSGVVWLIRNGSIYINESQATECDETQETGSFSKFVNVISARTAIGHDRKGQLVLFHADGQTEQRGINLWEMAEFLLKQDVVNAINLDGGGSATFVLNGTLASYPSDHCQDNMWRCPRQVSTVVCVHEPRCQPPDCHGHGTCVDGHCQCTGHFWRGPGCDELDCGPSNCSQHGLCTETGCRCDAGWTGSNCSEECPLGWHGPGCQRPCKCEHHCPCDPKTGNCSVSRVKQCLQPPEATLRAGELSFFTRTAWLALTLALAFLLLISTAANLSLLLSRAERNRRLHGDYAYHPLQEMNGEPLAAEKEQPGGAHNPFKD [NAGPA] | -0.232 | 0.327 | 54.5 °C | 55.4 °C |
| MAAPEAWRARSCWFCEVAAATTMEATSREAAPAKSSASGPNAPPALFELCGRAVSAHMGVLESGVWALPGPILQSILPLLNIYYLERIEETALKKGLSTQAIWRRLWDELMKTRPSSLESVTCWRAKFMEAFFSHVLRGTIDVSSDRRLCDQRFSPLLHSSRHVRQLTICNMLQGATELVAEPNRRVLETLASSLHTLKFRHLLFSDVAAQQSLRQLLHQLIHHGAVSQVSLYSWPVPESALFILILTMSAGFWQPGPGGPPCRLCGEASRGRAPSRDEGSLLLGSRRPRRDAAERCAAALMASRRKSEAKQMPRAAPATRVTRRSTQESLTAGGTDLKRELHPPATSHEAPGTKRSPSAPAATSSASSSTSSYKRAPASSAPQPKPLKRFKRAAGKKGARTRQGPGAESEDLYDFVFIVAGEKEDGEEMEIGEVACGALDGSDPSCLGLPALEASQRFRSISTLELFTVPLSTEAALTLCHLLSSWVSLESLTLSYNGLGSNIFRLLDSLRALSGQAGCRLRALHLSDLFSPLPILELTRAIVRALPLLRVLSIRVDHPSQRDNPGVPGNAGPPSHIIGDEEIPENCLEQLEMGFPRGAQPAPLLCSVLKASGSLQQLSLDSATFASPQDFGLVLQTLKEYNLALKRLSFHDMNLADCQSEVLFLLQNLTLQEITFSFCRLFEKRPAQFLPEMVAAMKGNSTLKGLRLPGNRLGNAGLLALADVFSEDSSSSLCQLDISSNCIKPDGLLEFAKRLERWGRGAFGHLRLFQNWLDQDAVTAREAIRRLRATCHVVSDSWDSSQAFADYVSTM [LRRC41] | 0.0944 | -0.31 | 47.9 °C | 49.5 °C |
| UNC13B | -0.114 | -0.113 | 50.3 °C | 49.4 °C |
| MPVTVTRTTITTTTTSSSGLGSPMIVGSPRALTQPLGLLRLLQLVSTCVAFSLVASVGAWTGSMGNWSMFTWCFCFSVTLIILIVELCGLQARFPLSWRNFPITFACYAALFCLSASIIYPTTYVQFLSHGRSRDHAIAATFFSCIACVAYATEVAWTRARPGEITGYMATVPGLLKVLETFVACIIFAFISDPNLYQHQPALEWCVAVYAICFILAAIAILLNLGECTNVLPIPFPSFLSGLALLSVLLYATALVLWPLYQFDEKYGGQPRRSRDVSCSRSHAYYVCAWDRRLAVAILTAINLLAYVADLVHSAHLVFVKV [MYADM] | -0.0179 | -0.352 | 52.9 °C | 53 °C |
| DNAJC15 | -0.164 | 0.11 | 51 °C | 51.2 °C |
| MAEPDYIEDDNPELIRPQKLINPVKTSRNHQDLHRELLMNQKRGLAPQNKPELQKVMEKRKRDQVIKQKEEEAQKKKSDLEIELLKRQQKLEQLELEKQKLQEEQENAPEFVKVKGNLRRTGQEVAQAQES [FAM107B] | 0.435 | 0.00364 | 57.3 °C | – |
